In patent US20060183664A1, “Pharmaceutical composition for delayed hypersensitivity” (priority 2001, published 2006):

Biological target: T1, PAR-2 (Homo sapiens, UniProt P55085)
T1 construct: expressed in transfected cells; host or cells: NCTC2544 cells
T1 sequence (P55085 26-397): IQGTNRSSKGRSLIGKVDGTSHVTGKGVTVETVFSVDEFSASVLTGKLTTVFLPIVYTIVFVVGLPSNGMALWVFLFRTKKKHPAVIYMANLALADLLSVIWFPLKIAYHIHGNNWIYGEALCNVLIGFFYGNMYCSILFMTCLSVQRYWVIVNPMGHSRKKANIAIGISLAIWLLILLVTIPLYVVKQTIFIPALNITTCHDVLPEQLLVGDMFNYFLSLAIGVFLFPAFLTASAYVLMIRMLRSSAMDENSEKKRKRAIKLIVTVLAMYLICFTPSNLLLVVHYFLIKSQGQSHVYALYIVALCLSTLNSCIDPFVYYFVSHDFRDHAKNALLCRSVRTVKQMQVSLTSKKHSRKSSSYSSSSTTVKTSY
Assay: Assay of PAR-2 activation using inositol phosphates as an indicator in NCTC2544 cells with stably high expression of PAR-2
Type: cell-based
Conditions: subject substance added 15 min before stimulation
From the text: The invention also provides a novel method for measuring PAR-2 activity. PAR-2 belongs to G-protein-coupled receptor (GPCR) family, and produces inositol phosphates as a second messenger upon activation of the receptor. Based on this mechanism, the effects of subject substances in activation of PAR-2 can be determined quantitatively by quantifying produced inositol phosphates in PAR2-expressing cells by an ion chromatography or the like.
NCTC2544 cells with stably high expression of PAR-2 were cultured in the serum-free medium containing […]/ml of [^3H]-myo-inositol for 18 hours. Lithium chloride (final […]) was added 30 min before the stimulation, and subsequently cells were stimulated with trypsin (1 to 30 nM) or the PAR-2 agonist peptide, SLIGKV (10 to 300 μM). After 45 min the lipid component was extracted with methanol and separated using an anion exchanging resin (AG1-X, formate form). Then the yield of inositol phosphates was determined in a scintillation counter. The subject substance was added 15 min before the stimulation.

SLIGKV-mediated activation of PAR-2 (inositol phosphate production) (stimulation with PAR-2 activating peptide SLIGKV): not affected
Trypsin-mediated activation of PAR-2 (inositol phosphate production) (stimulation with trypsin): inhibited
B1: trypsin inhibitor derived from soybeans: a trypsin inhibitor derived from soybeans, used as subject substance in the PAR-2 inositol phosphate assay (protein, UniProt P01070 25-205, looked up)
Trypsin inhibitor A: DFVLDNEGNPLENGGTYYILSDITAFGGIRAAPTGNERCPLTVVQSRNELDKGIGTIISSPYRIRFIAEGHPLSLKFDSFAVIMLCVGIPTEWSVVEDLPEGPAVKIGENKDAMDGWFRLERVSDDEFNNYKLVFCPQQAEDDKCGDIGISIDHDDGTRRLVVSKNKPLVVQFQKLDKESL
